In the supplement of paper PMC5998384:

Key:
HeLa Kyoto [1] = assay: solubility in G1/S (NP-40 vs SDS abundance) (log2 ratio); higher = more soluble; settings: cell cycle stage: G1/S
HeLa Kyoto [2] = assay: melting temperature (median over replicates), in situ; higher = more thermally stable
HeLa Kyoto [3] = assay: solubility change mitosis vs G1/S (difference of NP-40 vs SDS log2 ratios) (log2 ratio difference); higher = more soluble in mitosis
HeLa Kyoto [4] = assay: thermal stability score vs G1/S (z-score of summed log2 fold changes over temperatures); higher = more thermally stable than in G1/S
[5] = cell cycle stage: early G1 (4.5 h after nocodazole release)
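For melting temperature (median over replicates), in situ in this document: HeLa Kyoto cells synchronized by double thymidine or nocodazole block, proteins quantified by TMT10plex mass spectrometry, three independent biological replicates.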
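For solubility change mitosis vs G1/S (difference of NP-40 vs SDS log2 ratios) in this document: synchronized HeLa Kyoto cells (double thymidine block for G1/S, nocodazole release for mitosis), protein amounts in NP-40 versus SDS lysates quantified by mass spectrometry, three biological replicates.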
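For solubility in G1/S (NP-40 vs SDS abundance) in this document: HeLa Kyoto cells arrested at G1/S by double thymidine block, proteins quantified by TMT10plex mass spectrometry in mild NP-40 versus SDS extracts, three biological replicates.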
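For thermal stability score vs G1/S (z-score of summed log2 fold changes over temperatures) in this document: synchronized HeLa Kyoto cells, proteins quantified by TMT10plex mass spectrometry, three biological replicates, mitosis taken 0.5 h after nocodazole release, G1/S directly after double thymidine block.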

MASATAAAARRGLGRALPLFWRGYQTERGVYGYRPRKPESREPQGALERPPVDHGLARLVTVYCEHGHKAAKINPLFTGQALLENVPEIQALVQTLQGPFHTAGLLNMGKEEASLEEVLVYLNQIYCGQISIETSQLQSQDEKDWFAKRFEELQKETFTTEERKHLSKLMLESQEFDHFLATKFSTVKRYGGEGAESMMGFFHELLKMSAYSGITDVIIGMPHRGRLNLLTGLLQFPPELMFRKMRGLSEFPENFSATGDVLSHLTSSVDLYFGAHHPLHVTMLPNPSHLEAVNPVAVGKTRGRQQSRQDGDYSPDNSAQPGDRVICLQVHGDASFCGQGIVPETFTLSNLPHFRIGGSVHLIVNNQLGYTTPAERGRSSLYCSDIGKLVGCAIIHVNGDSPEEVVRATRLAFEYQRQFRKDVIIDLLCYRQWGHNELDEPFYTNPIMYKIIRARKSIPDTYAEHLIAGGLMTQEEVSEIKSSYYAKLNDHLNNMAHYRPPALNLQAHWQGLAQPEAQITTWSTGVPLDLLRFVGMKSVEVPRELQMHSHLLKTHVQSRMEKMMDGIKLDWATAEALALGSLLAQGFNVRLSGQDVGRGTFSQRHAIVVCQETDDTYIPLNHMDPNQKGFLEVSNSPLSEEAVLGFEYGMSIESPKLLPLWEAQFGDFFNGAQIIFDTFISGGEAKWLLQSGIVILLPHGYDGAGPDHSSCRIERFLQMCDSAEEGVDGDTVNMFVVHPTTPAQYFHLLRRQMVRNFRKPLIVASPKMLLRLPAAVSTLQEMAPGTTFNPVIGDSSVDPKKVKTLVFCSGKHFYSLVKQRESLGAKKHDFAIIRVEELCPFPLDSLQQEMSKYKHVKDHIWSQEEPQNMGPWSFVSPRFEKQLACKLRLVGRPPLPVPAVGIGTVHLHQHEDILAKTFA [DHTKD1]
solubility in G1/S (log2) (HeLa Kyoto [1]): -0.0401 | melting temperature (HeLa Kyoto [2]; cell cycle stage: G1/S): 51.2 °C | melting temperature (HeLa Kyoto [2]; cell cycle stage: mitosis): 51.4 °C | solubility change mitosis (log2) (HeLa Kyoto [3]): -0.0218 | thermal stability score (HeLa Kyoto [4]; [5]): -0.797 | thermal stability score (HeLa Kyoto [4]; cell cycle stage: mitosis): -0.271

MKLSLTKVVNGCRLGKIKNLGKTGDHTMDIPGCLLYTKTGSAPHLTHHTLHNIHGVPAMAQLTLSSLAEHHEVLTEYKEGVGKFIGMPESLLYCSLHDPVSPCPAGYVTNKSVSVWSVAGRVEMTVSKFMAIQKALQPDWFQCLSDGEVSCKEATSIKRVRKSVDRSLLFLDNCLRLQEESEVLQKSVIIGVIEGGDVMEERLRSARETAKRPVGGFLLDGFQGNPTTLEARLRLLSSVTAELPEDKPRLISGVSRPDEVLECIERGVDLFESFFPYQVTERGCALTFSFDYQPNPEETLLQQNGTQEEIKCMDQIKKIETTGCNQEITSFEINLKEKKYQEDFNPLVRGCSCYCCKNHTRAYIHHLLVTNELLAGVLLMMHNFEHYFGFFHYIREALKSDKLAQLKELIHRQAS [QTRTD1]
solubility in G1/S (log2) (HeLa Kyoto [1]): 0.116 | melting temperature (HeLa Kyoto [2]; cell cycle stage: G1/S): 54.6 °C | melting temperature (HeLa Kyoto [2]; cell cycle stage: mitosis): 54.3 °C | solubility change mitosis (log2) (HeLa Kyoto [3]): -0.121 | thermal stability score (HeLa Kyoto [4]; [5]): -0.725 | thermal stability score (HeLa Kyoto [4]; cell cycle stage: mitosis): -2.32

MANSGCKDVTGPDEESFLYFAYGSNLLTERIHLRNPSAAFFCVARLQDFKLDFGNSQGKTSQTWHGGIATIFQSPGDEVWGVVWKMNKSNLNSLDEQEGVKSGMYVVIEVKVATQEGKEITCRSYLMTNYESAPPSPQYKKIICMGAKENGLPLEYQEKLKAIEPNDYTGKVSEEIEDIIKKGETQTL [GGCT]
solubility in G1/S (log2) (HeLa Kyoto [1]): 0.302 | melting temperature (HeLa Kyoto [2]; cell cycle stage: G1/S): 55.4 °C | melting temperature (HeLa Kyoto [2]; cell cycle stage: mitosis): 55.3 °C | solubility change mitosis (log2) (HeLa Kyoto [3]): -0.0992 | thermal stability score (HeLa Kyoto [4]; [5]): -0.47 | thermal stability score (HeLa Kyoto [4]; cell cycle stage: mitosis): -3.22

MATKCGNCGPGYSTPLEAMKGPREEIVYLPCIYRNTGTEAPDYLATVDVDPKSPQYCQVIHRLPMPNLKDELHHSGWNTCSSCFGDSTKSRTKLVLPSLISSRIYVVDVGSEPRAPKLHKVIEPKDIHAKCELAFLHTSHCLASGEVMISSLGDVKGNGKGGFVLLDGETFEVKGTWERPGGAAPLGYDFWYQPRHNVMISTEWAAPNVLRDGFNPADVEAGLYGSHLYVWDWQRHEIVQTLSLKDGLIPLEIRFLHNPDAAQGFVGCALSSTIQRFYKNEGGTWSVEKVIQVPPKKVKGWLLPEMPGLITDILLSLDDRFLYFSNWLHGDLRQYDISDPQRPRLTGQLFLGGSIVKGGPVQVLEDEELKSQPEPLVVKGKRVAGGPQMIQLSLDGKRLYITTSLYSAWDKQFYPDLIREGSVMLQVDVDTVKGGLKLNPNFLVDFGKEPLGPALAHELRYPGGDCSSDIWI [SELENBP1]
solubility in G1/S (log2) (HeLa Kyoto [1]): 0.265 | melting temperature (HeLa Kyoto [2]; cell cycle stage: G1/S): 59.7 °C | melting temperature (HeLa Kyoto [2]; cell cycle stage: mitosis): 60.9 °C | solubility change mitosis (log2) (HeLa Kyoto [3]): -0.131 | thermal stability score (HeLa Kyoto [4]; [5]): -0.479 | thermal stability score (HeLa Kyoto [4]; cell cycle stage: mitosis): -0.737
